The text below walks through data of publication PMC4300558 (Cell Communication and Signaling : CCS, 2015).

The target of assay [1] is prolactin receptor (Homo sapiens) (UniProt P16471). Particulars: cited from earlier work.
Assay [2] shares this target. To be noted: cited from earlier work. This is another data set of the same source.
The target in assay [3] is T1, extracellular domain of the human prolactin receptor (human, UniProt P16471, biotin (site not stated; in the phage ELISA)).
T1 construct: prolactin receptor, human, extracellular domain (two tandem fibronectin domains FN1 and FN2); No methods in the main text; also called hPRL-R; hPRL-R ECD
Put plainly: SPR; Biacore 2000; dissociation constant calculated from the on and off rates. To be noted: both partners purified.

Assay [4] addresses T2, extracellular domain of the human prolactin receptor (human, UniProt P16471 25-234, biotin (site not stated; in the phage ELISA)).
T2 chain: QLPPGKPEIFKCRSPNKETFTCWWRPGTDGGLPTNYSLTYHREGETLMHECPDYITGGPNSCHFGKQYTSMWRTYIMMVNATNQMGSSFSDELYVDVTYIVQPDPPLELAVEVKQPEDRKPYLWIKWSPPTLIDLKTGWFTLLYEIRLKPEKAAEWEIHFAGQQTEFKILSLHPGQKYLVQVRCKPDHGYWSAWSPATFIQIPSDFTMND
Put plainly: ELISA; competition with phage-displayed sAB A8.

Assay [5] has as its target T2, extracellular domain of the human …. Put plainly: ELISA; competition with phage-displayed sAB A9. Background: In an ELISA, binding on a coated surface is turned into a signal by an enzyme label.
Assay [6] has the same target. Put plainly: ELISA; competition with phage-displayed sAB A10.
For assay [7], the target named is T3, extracellular domain of the human prolactin receptor (human, UniProt P16471 25-234, biotin (site not stated; in the phage ELISA)).
T3 construct: prolactin receptor, human, extracellular domain (two tandem fibronectin domains FN1 and FN2); No methods in the main text; also called hPRL-R; hPRL-R ECD
T3 sequence (looked up): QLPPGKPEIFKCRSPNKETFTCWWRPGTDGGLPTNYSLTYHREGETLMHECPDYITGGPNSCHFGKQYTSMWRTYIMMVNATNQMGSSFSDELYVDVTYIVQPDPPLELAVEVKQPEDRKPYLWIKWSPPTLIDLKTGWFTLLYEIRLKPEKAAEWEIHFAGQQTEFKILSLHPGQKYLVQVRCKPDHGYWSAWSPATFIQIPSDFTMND
Put plainly: ELISA; competition phage ELISA; biotinylated receptor immobilised on streptavidin plates; hGH or PRL titrated against phage-displayed sAB. Particulars: both partners purified.

Read-outs that look alike come from different tables or passages of the source.

As for growth hormone (from UniProt P01241), in assay [1], the Kd was 1 nM.
For prolactin (from UniProt P01236), the Kd in assay [2] is 6 nM.

B1: synthetic antibody (sAB) A8 (Fab, V domains shown)
VH: EVQLVESGGGLVQPGGSLRLSCAASGFNFSSSSMHWVRQAPGQGLEWVAYISPYYGSTSYADSVKGRFTISADTSKNTAYLQMNSLRAEDTAVYYCARSYGYVYWNAYSSGMDYWGQGTLVTVSS
VL: DIQMTQSPSSLSASVGDRVTITCRASQSVSSAVAWYQQKPGKAPKLLIYSASSLYSGVPSRFSGSRSGTDFTLTISSLQPEDFATYYCQQYYSYYYPFTFGQGTKVEIK
notes: Fab scaffold before loop H1; heavy chain loop 1 (H1), randomized loop; Fab scaffold between H1 and H2; heavy chain loop 2 (H2), randomized loop; Fab scaffold between H2 and H3; heavy chain loop 3 (H3), randomized loop; Fab scaffold after H3 (rest of VH and CH1); Fab scaffold before loop L3; light chain loop 3 (L3), randomized loop; Fab scaffold after L3 (rest of VL and CL); Only the four …
As to B1, in assay [3], the equilibrium dissociation constant (Kd) is 5.6 nM, the koff was 0.00054 s⁻¹ and the kon was 96000 M⁻¹ s⁻¹.

B2: human prolactin (ligand, UniProt P01236 29-227, looked up)
chain: LPICPGGAARCQVTLRDLFDRAVVLSHYIHNLSSEMFSEFDKRYTHGRGFITKAINSCHTSSLATPEDKEQAQQMNQKDFLSLIVSILRSWNEPLYHLVTEVRGMQEAPEAILSKAVEIEEQTKRLLEGMELIVSQVHPETKENEIYPVWSGLPSLQMADEESRLSAYYNLLHCLRRDSHKIDNYLKLLKCRIIHNNNC
notes: prolactin, human; Labelled with cy5 in the internalization experiment; also called hPRL; PRL
Consider B2, for which the IC50 in assay [4] worked out at 11 nM; in assay [5], 13 nM; in assay [6], 9 nM. In addition, in assay [7], the binding result was “binds”.

As usually defined, the Kd is the constant that tells how readily two partners part at equilibrium. As a reminder, the koff is a measure of how fast the partners let go of each other. Broadly, the kon is a measure of how fast the partners come together. What is called IC50 is the concentration needed to halve the response being measured.
